Reference: paper PMC4060006, “SM proteins Sly1 and Vps33 co-assemble with Sec17 and SNARE complexes to oppose SNARE disassembly by Sec18” (eLife, 2014)

T1: Sec17–Golgi SNARE complex (Sec17 bound to the Golgi SNARE complex on GST-Sed5 SNARE domain) (S. cerevisiae, UniProt Q01590 170-319; P25385 1-222; P22804 1-123; P22214 1-188; P32602 1-292)
T1 construct: Sed5, Qa-SNARE, S. cerevisiae, aa170-319; Bos1, Qb-SNARE, S. cerevisiae, aa1-222; Bet1, Qc-SNARE, S. cerevisiae, aa1-123; Sec22, R-SNARE, S. cerevisiae, aa1-188; Sec17, S. cerevisiae; in most experiments Sec17 and Sly1 were added together to the immobilised SNARE complex; also called SNARE-Sec17 complex; Sec17–SNARE complex; source: assembled on …
T1 sequence (looked up) 1: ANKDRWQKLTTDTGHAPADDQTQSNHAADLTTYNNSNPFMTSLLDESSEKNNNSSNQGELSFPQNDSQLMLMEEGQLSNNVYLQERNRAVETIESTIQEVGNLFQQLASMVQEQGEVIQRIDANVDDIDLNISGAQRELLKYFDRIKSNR
T1 sequence (looked up) 2: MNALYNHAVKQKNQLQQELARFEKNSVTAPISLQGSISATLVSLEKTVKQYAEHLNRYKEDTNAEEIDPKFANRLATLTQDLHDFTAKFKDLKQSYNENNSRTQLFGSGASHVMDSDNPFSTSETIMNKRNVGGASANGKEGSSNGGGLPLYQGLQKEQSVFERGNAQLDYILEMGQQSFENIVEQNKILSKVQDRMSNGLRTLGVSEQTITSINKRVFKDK
T1 sequence (looked up) 3: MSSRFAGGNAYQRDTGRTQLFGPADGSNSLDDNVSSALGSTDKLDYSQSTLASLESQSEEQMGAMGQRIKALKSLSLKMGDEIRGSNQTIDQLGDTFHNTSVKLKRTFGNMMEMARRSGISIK
T1 sequence (looked up) 4: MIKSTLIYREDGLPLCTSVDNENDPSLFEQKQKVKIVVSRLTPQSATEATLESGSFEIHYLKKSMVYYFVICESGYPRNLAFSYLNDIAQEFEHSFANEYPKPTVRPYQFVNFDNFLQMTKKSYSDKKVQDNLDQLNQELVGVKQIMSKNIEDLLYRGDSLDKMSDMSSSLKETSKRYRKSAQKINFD
T1 sequence (looked up) 5: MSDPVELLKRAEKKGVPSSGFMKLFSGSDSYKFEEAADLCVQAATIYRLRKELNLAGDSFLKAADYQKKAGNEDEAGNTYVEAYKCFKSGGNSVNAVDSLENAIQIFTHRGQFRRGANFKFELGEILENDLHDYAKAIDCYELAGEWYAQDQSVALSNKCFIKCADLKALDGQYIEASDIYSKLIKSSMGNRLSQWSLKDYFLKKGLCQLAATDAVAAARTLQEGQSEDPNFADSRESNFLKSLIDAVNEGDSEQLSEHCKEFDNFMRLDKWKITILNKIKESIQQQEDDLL

T2: Golgi SNARE complex assembled on immobilized GST-Sed5 SNARE domain (S. cerevisiae, UniProt Q01590 170-319; P25385 1-222; P22804 1-123; P22214 1-188)
T2 construct: Sed5, Qa-SNARE, S. cerevisiae, aa170-319; Bos1, Qb-SNARE, S. cerevisiae, aa1-222; Bet1, Qc-SNARE, S. cerevisiae, aa1-123; Sec22, R-SNARE, S. cerevisiae, aa1-188; quaternary SNARE bundle, no membranes; also called Golgi SNARE bundle; S.C; source: assembled on glutathione sepharose from proteins made in E. coli; not shown: GST, N-terminal, kept; His6, N-terminal, …
T2 sequence (looked up) 1: T1 sequence (looked up) 1
T2 sequence (looked up) 2: T1 sequence (looked up) 2
T2 sequence (looked up) 3: T1 sequence (looked up) 3
T2 sequence (looked up) 4: T1 sequence (looked up) 4

B1: GST-Sed5 full cytoplasmic domain (aa1-319) (domain or fragment, S. cerevisiae, UniProt Q01590 1-319, looked up)
chain: MNIKDRTSEFQQSVLSYKKRNKNFREQQRERLQEKESENFANNTTGNGKSVSEFQKKASGIAHEISSTAQLLSKLAVLAKRKPMFNDNPVEIAELSFLIKRKIYAIEQSLVQLSQLKKTDVNGNTSNQSSKQPSAVQHSKNVVNLLNTQMKNISGSFKDVLEERQRLEMANKDRWQKLTTDTGHAPADDQTQSNHAADLTTYNNSNPFMTSLLDESSEKNNNSSNQGELSFPQNDSQLMLMEEGQLSNNVYLQERNRAVETIESTIQEVGNLFQQLASMVQEQGEVIQRIDANVDDIDLNISGAQRELLKYFDRIKSNR
notes: Sed5, Golgi Qa-SNARE, S. cerevisiae, full cytoplasmic domain aa1-319 with N-peptide and Habc segments, no transmembrane domain; also called GST-Sed5FL; Sed5FL; not shown: GST, N-terminal, kept
B2: Sly1 (full length, aa1-667) (natural protein, S. cerevisiae, UniProt P22213 1-666, looked up)
chain: MAVEEIASRKDISLRDMQISAILKMLFLNKDLNNNDNITTITDDIFNQQEIIWKVLILDIKSTATISSVLRVNDLLKAGITVHSLIKQDRSPLPDVPAIYFVSPTKENIDIIVNDLKSDKYSEFYINFTSSLPRNLLEDLAQQVSITGKSDKIKQVYDQYLDFIVTEPELFSLEISNAYLTLNDPKTTEEEITGLCANIADGLFNTVLTINSIPIIRAAKGGPAEIIAEKLGTKLRDFVINTNSSSTSTLQGNDSLERGVLIILDRNIDFASMFSHSWIYQCMVFDIFKLSRNTVTIPLESKENGTDNTTAKPLATKKYDIEPNDFFWMENSHLPFPEAAENVEAALNTYKEEAAEITRKTGVTNISDLDPNSNNDTVQIQEVVKKLPELTAKKNTIDTHMNIFAALLSQLESKSLDTFFEVEQDPGSTKTRSRFLDILKDGKTNNLEDKLRSFIVLYLTSTTGLPKDFVQNVENYFKENDYDINALKYVYKLREFMQLSNMSLQNKSLEDGSDSAFKPSNLTLSGIYGLTEGKLQGGVGSLISGIKKLLPEKKTIPITNVVDAIMDPLNSSQKNLETTDSYLYIDPKITRGSHTRKPKRQSYNKSLVFVVGGGNYLEYQNLQEWAHSQLHNPKKVMYGSTAITTPAEFLNEISRLGASNSSNNDA
notes: Sly1, Golgi SM protein, S. cerevisiae, printed as full-length aa1-667; construct His6-(tev)-Sly1; as I recall the UniProt entry has 666 residues; the printed 667 may count the stop codon; also called His6-Sly1; Golgi SM protein; source: E. coli (pRIL plasmid), purified (Ni-NTA)
B3: Sec17 (natural protein, S. cerevisiae, UniProt P32602 1-292, looked up)
chain: T1 sequence (looked up) 5
notes: Sec17, S. cerevisiae; construct CBD-(intein)-Sec17 in pTYB12; an intein tag is as a rule cut off during purification; also called α-SNAP homolog; Sec18 adapter; source: E. coli (pRIL plasmid), purified

Legend:
Details in all cases: both partners purified
[1] = target: B2; experiment: pull-down; full cytoplasmic domain of Sed5 (GST-Sed5FL, 500 nM) immobilised without assembled SNARE complex; Sly1 (10 µM) and Sec17; 30°C; Coomassie
[2] = target: T1, Sec17–Golgi SNARE complex (Sec17 bound …); experiment: pull-down; quantitative: immobilised SNARE complex, SM concentration varied, with or without Sec17, 30°C; SYPRO Ruby with standard curves; fractional saturation against free SM, one-site model; apparent (Kdobs), non-equilibrium measurements
[3] = target: T1, Sec17–Golgi SNARE complex (Sec17 bound …); experiment: pull-down; stoichiometry: complexes assembled on immobilised SNARE complex under saturation binding conditions; SDS-PAGE, SYPRO Ruby, band intensities against standard curves of the purified proteins; apparent
[4] = target: T3, vacuole SNARE complex assembled on immobilized Vam3-GST (S. cerevisiae, UniProt Q12241 1-264; Q04338 1-194; P32912 190-316; Q12255 1-231); experiment: as above
T3 construct: Vam3, Qa-SNARE, S. cerevisiae, aa1-264; Vti1, Qb-SNARE, S. cerevisiae, aa1-194; Vam7, Qc-SNARE, S. cerevisiae, SNARE domain aa190-316; Nyv1, R-SNARE, S. cerevisiae, aa1-231; quaternary SNARE bundle, no membranes; also called vacuolar SNARE complex; SNARE bundle; source: assembled on glutathione sepharose from proteins made in E. coli; not shown: GST, C-terminal, …

[5] = target: T2, Golgi SNARE complex assembled on …; experiment: as above

T3 sequence (Q12241 1-264, chain 1 of 4): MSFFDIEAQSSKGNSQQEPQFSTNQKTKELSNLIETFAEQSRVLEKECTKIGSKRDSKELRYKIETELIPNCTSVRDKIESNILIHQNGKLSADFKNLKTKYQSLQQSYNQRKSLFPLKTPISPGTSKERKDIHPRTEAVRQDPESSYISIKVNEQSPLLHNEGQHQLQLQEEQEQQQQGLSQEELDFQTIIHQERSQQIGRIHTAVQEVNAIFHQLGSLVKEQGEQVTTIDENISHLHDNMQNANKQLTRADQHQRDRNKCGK
T3 sequence (Q04338 1-194, chain 2 of 4): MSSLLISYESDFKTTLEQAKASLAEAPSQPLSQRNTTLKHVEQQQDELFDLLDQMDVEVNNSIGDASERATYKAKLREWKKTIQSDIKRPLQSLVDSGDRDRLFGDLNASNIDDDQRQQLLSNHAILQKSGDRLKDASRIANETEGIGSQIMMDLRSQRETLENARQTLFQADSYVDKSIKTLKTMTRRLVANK
T3 sequence (P32912 190-316, chain 3 of 4): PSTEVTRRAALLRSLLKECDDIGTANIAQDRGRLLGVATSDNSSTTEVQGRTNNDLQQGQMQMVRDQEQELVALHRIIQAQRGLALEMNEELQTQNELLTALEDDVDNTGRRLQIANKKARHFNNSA
T3 sequence (Q12255 1-231, chain 4 of 4): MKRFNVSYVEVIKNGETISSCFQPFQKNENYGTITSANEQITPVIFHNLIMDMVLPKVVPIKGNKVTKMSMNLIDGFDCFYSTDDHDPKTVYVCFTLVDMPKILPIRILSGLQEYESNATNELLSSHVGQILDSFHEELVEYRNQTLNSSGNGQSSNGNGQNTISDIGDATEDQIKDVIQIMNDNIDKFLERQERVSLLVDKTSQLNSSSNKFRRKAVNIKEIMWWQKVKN

Binder: B1
binding result [1]: binds

Binder: B2
Kd [2]: 1000 ± 100 nM | stoichiometry N [3]: 1 Sly1 per SNARE complex

Binder: B3
stoichiometry N [4]: 3 Sec17 per SNARE complex | stoichiometry N [5]: 3 Sec17 per SNARE complex
